Results: a protein production outcome set (Wang et al. 2014)
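Note: failed if final PepcDB status was selected cloned or expressed and not failed if soluble or beyond.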

Test: label from the status in PepcDB records
In the case of “MNSPFAAETLLFERSRPRPEALRVIYGFPNTYSVGITSLGYQLVWAQLASRADVAVSRLFTDVQEPLPRDPELVGFSFSWELDYGNLLVLLEQLGIPIWQRDRHDCHPLVFGGGPVLTANPEPFADFFDVILLGDAEPLLDPFLTTMAQVRTAARSQRLEALAHVPGIYVPSLYHVSYSHPTGPIQRIEPIKASVPPTVTKQVHRGHTLAASTVVTPLAAWENIYMVEVVRSCPELCRFCLASYLTLPFRTPSLETLIPAIERGLAVTDRLGLLGASITQHPEFPALIEHLGQPQFDHVRVSLASVRTNTVTESLAQLLSQRGSQSLTIAIETGSERLRQVINKKLETEEILAAASHAQAGGLKGLKFYGMVGLPTETDADVAATVDLFCQLKKTAPRLRLTLGCSTFVPKAHTPFQWWGVQPVAEKRLKFLKKELAKLGIEFRPESYNDSLIQALISRGDRRLAPLLEQVRHYGTSLGSYRRAFKERQGQLPDFEAYVNANWPEETVLPWQHLQSGLPTKTLENHLKRAIALEHHHHHH”, the protein production is reported as “failed”.
For “MNSPKNSLYEEKSGHYYNAVNPNLLKHIKKEWKEVLDIGCSSGALGAAIKENGTRVSGIEAFPEAAEQAKEKLDHVVLGDIETMDMPYEEEQFDCVIFGDVLEHLFDPWAVIEKVKPYIKQNGVILASIPNVSHISVLAPLLAGNWTYTEYGLLDKTHIRFFTFNEMLRMFLKAGYSISKVDRVYVDHKMYEPLIEELYGICKKYRLGSGFMAETVVFQYIIEAEKSQL”, the protein production was “not failed”.
For “MNSPTSRPLRRDPLHNALVTTNVLVVLDQLEVAAEPTRRRLVQLLTSGEQTVNNLAAHFPASRSAISQHLRVLTEAGLVTPRKDGRFRYYRLDPQGLAQLRALFDSFWIDELDRLVADATEEAASKGDS”, the protein production was “not failed”.
In the case of “MNSTAIVLLNWRSAKDTVKCVESLIAAEIRQCDIIIVDNDSQDESINVIKEHFTDVRVIESGKNGGFAYGCNVGIRAALSSGYNYVWLLNNDTIVDKTTLPNMIEEIKRNKKAIVGSIIRDIEFPWSVQAVGGGTINFLTGTGRHIKTFDDVDKLDYLLGASILVSREALESIGLLNEDFFMYWEDTEFCIRARRKGYFLKVAKQSNVYHKEGGSVNKESYAQTRMIFRSMRKFFLKESPFPLLPIAIRQLGKTFVSLLRREFRRIPYIWL”, the protein production is reported as “failed”.
In the case of “MNSTRGVTLIQLSSALAYSHALMNQVVNPGDHVIDATVGNGHDTVYLAKLVGTTGHVDGFDIQSAAIEATTTALDKAALTHQVTLWQTGHEHIADKIAADQPIKCAVFNLGYLPGGDKQIITKPTTTLTAIKAIQERLVTNGLIILLVYAGHPGGATEAQAVLDYVTNLDQHQFQVLQYQFINQVHVPPYLLAIQKR”, the protein production is reported as “failed”.
With “MNSVGFYGKLAGRGDFVSRGLPNTFVEPWDAWLASGMRASQDELGAAWLDAYLTSPLWRFAIAPGLLGGEAVTGVVMPSIDRVGRYFPLTVACLLPANADLGGLVGGDDGWFEQVESLLLSTLEPEAEVEAFEQAVAQLPAPPCGPRIEQSLISGNLLRSEAVTPAQRLAALAQHACDGASHWWGRGSARISAGLMRYQGLPPAPAFGRFLTGEGEVIPLFPGIPG” the protein production was “not failed”.
In the case of “MNSVVDISWAKLAAFSLILLVPLAINARYRLGIAKDASVSVVRMTLQLVLIGVYLEYLFQLNSLIINLLWLAIMLVVGASSIAGKARLPKKPLMLPLLTGLVCGLFPLLIAITAGLVRPTPLYNAQYMIPLAGMLLGNSLSSNIIALQNLFSAFEERKSEYEAAISLGAAPKYASFPFVQEALRKSLAPTLASMTTMGLVTLPGMMTGQVLGGASPLVAIKYQLVIMLAIFVMMSVSVAITLEMTLSFVQTKEGRVTVKVRPVDGMKRGQ”, the protein production is reported as “failed”.
For “MNTESVVEFLGNVPLLQKLPSSSLKKIAQVVVPKRYGKGDYVVREDQTWDGCYFILQGEAQVSGPDEEDNRSEFLLKQYDYFGVGLSGNVHSADIVAMSQLTCLVLPRDHCHLLETNSIWQSDTSLDKCSLVERILQLDPLELNIFRGITLPDAPIFGKVFGGQFVGQALAAASKTVDFLKVVHSLHSYFLLVGDIDIPIIYQVHRIRDGNNFATRRVDAVQKGNIIFILLASFQKEQQGFEHQESTMPSVPDPDTLLSLEELRESRITDPHLPRSYRNKVATRNFVPWPIEIRFCEPSNSTNQTKSPPRLNYWFRAKGRLSDDQALHRCVVAFASDLIFCGVGLNPHRRKGVKSAALSLDHAMWFHRPLRADEWLLYVIVSPTAHETRGFVTGQMFNRKGELVVSLTQEALLREARPPKPSGTSKL”, the protein production was “failed”.
For “MNTGTAVITGASSGLGLQCARALLRRDASWHVVLAVRDPARGRAAMEELGEPNRCSVLEVDLASVRSVRSFVETVRTTPLPPIRALVCNAGLQVVSGIAFTDDGVEMTFGVNHLGHFALVTGILDWLARPARIVVVSSGTHDPSKHTGMPDPRYTCAADLAHPPTDQNTPAEGRRRYTTSKLCNVLFTYELDRRLDHGEQGVMVNAFDPGLMPGSGLARDYPPILRLAYRLLSPMLRVLPFVHSTRVSGEHLAALAVDPRFAGVTGQYFAGAKAIRSSAESYDRAKALDLWETSERLLAQVT”, the protein production was “failed”.
For “MNTKALIGILMFLLLITWSSKGFAKTAEATVTVNIRNSPSTSSKVLGVFPKGFKAQVLSSTGGWVKISFDGVVGYVKSDYIKLTKDSSTSNAVKSSTNTRQVVSQMPMATVLKDNARVRSNMSTSSKILKTLKKGSKVYVLARERNGWIKVKTLDGTVGYMAYYLLKMSTSHTTKISSRGGYDREAQVAYNGSLADRILGFAKNLLGIRYRYGGSSPSTGFDCSGFVQYVFRNFGISLERTAADMAATDGVRISYNELRPGDLVFFDTDGGRNYINHVGIYLGGGKYIHASSARGCVTISDLTSKYGTSFMMAKRVIR”, the protein production was “failed”.
With “MNTKRNRLLYATFTILVIILGLSSRKFAFALPALLNDYLGDALWALMIFTGFGFLFPKIATKKLAFISLIFCYGIEVSQLYHAEWIDSIRATTLGGLVLGYGFLWSDLVAYTIGVGIGFLFELILWKK” the protein production was “failed”.
With “MNTLECLAVAVALAMDAFAVAIATGIRLREVSPRQTFRLAFHFGLFQALMPVAGWTLGLTVRGYIEQWDHWLAFGLLLYIGVRMMREAFEETEENDDRCDPTRGLTLIMLAVATSIDALAVGLSLSVLGIDIVTPAIVIGVVCLLFTATGLHLGRMLSRAESLGRRAALAGGVVLIGIGLRILYEHGVFDTAATLARSVLG” the protein production was “failed”.
In the case of “MNTLEIAKEVFEKEAQAILDLATNLDENFNQAVNLMLNTKGRCIVSGMGKSGHIGAKIAATLASTGTPSFFIHPGEALHGDLGMLTSEDVLIAISNSGETEEILKIIPAIKKREIPLIVMCGKKNSTLVKQGDIFLNIAVEKEACPLQLAPMSSTTATLVMGDALAAALMKVRNFKPDDFALFHPGGSLGRKLLTKVKDLMVSSNLPIVHPDTEFNDLVDVMTSGKLGLCVVLENEKLVGIITDGDLRRALKASDKPRFDFKAKEIMSINPKVVDADAMASEAEGIMLKHKIKEIIVGKEEKVVGIIQLYAIGNV”, the protein production is reported as “not failed”.
With “MNTSYSQSTLRHNQVLIWLCVLSFFSVLNEMVLNVSLPDIANEFNKLPASANWVNTAFMLTFSIGTALYGKLSDQLGIKNLLLFGIMVNGLGSIIGFVGHSFFPILILARFIQGIGAAAFPALVMVVVARYIPKENRGKAFGLIGSLVAMGEGVGPAIGGMVAHYIHWSYLLLIPTATIITVPFLIKLLKKEERIRGHIDMAGIILMSAGIVFFMLFTTSYRFSFLIISILAFFIFVQHIRKAQDPFVDPELGKNVFFVIGTLCGGLIFGTVAGFVSMVPYMMKDVHHLSTAAIGSGIIFPGTMSVIIFGYIGGLLVDRKGSLYVLTIGSALLSSGFLIAAFFIDAAPWIMTIIVIFVFGGLSFTKTVISTVVSSSLKEKEAGAGMSLLNFTSFLSEGTGIAIVGGLLSIGFLDHRLLPIDVDHSTYLYSNMLILFAGIIVICWLVILNVYKRSRRHG” the protein production was “not failed”.
With “MNTTVEKQQIITSNTEQWKMYSKLEGKEYQIHISKPKQPAPDSGYPVIYVLDGNAFFQTFHEAVKIQSVRAEKTGVSPAIIVGVGYPIEGAFSGEERCYDFTPSVISKDAPLKPDGKPWPKTGGAHNFFTFIEEELKPQIEKNFEIDKGKQTLFGHSLGGLFALHILFTNLNAFQNYFISSPSIWWNNKSVLEKEENLIIELNNAKFETGVFLTVGSLEREHMVVGANELSERLLQVNHDKLKFKFYEAEGENHASVVPTSLSKGLRFISYV” the protein production was “not failed”.
With “MNVDILKQRAKAFDYVFDAIVVTDLQGFIIDWNKGSETLYGYSKEQAIGQPVNMLHVPGDTEHITSEVISAVENQGKWTGEIRMLHKDGHIGWIESMCVPIYGENYQMVGALGINRDITKRKKELEHHHHHH” the protein production was “not failed”.
In the case of “MNVRHISYFNQWHGALVTNMLAGVLLALALLPGAIAFSFIAGVSPTIGMLSTGLMMLVISLTGNRTLMVSAPSSGVSLVVAPLMSSHGMPAVILATLIMGIIQILMGICRINKLLDYIPTGVVIGFMNALGVLLFTSQLKNILNISNATYVIAVASFLIIWLAQRYIRFMPAPLIAIIILTICAWWLKPDIVYVHHLASLHIHVPMLSFPDAMYDMHIVGISSMYGVTMAIVAVVQTTLTARMMDAVTATKSDKNKETIGQGVANTIVALFGGYGGSALVGQSRFNATMGATSRVSTLITGAFLLISLFVFGDIIGQIPMAVLATVLITISLNTFDRRTISFIKVSPIKHGAIVVLTMLIILSTNNLAAGVVLVSLLYYLIQGFNKRKGRDI”, the protein production is reported as “failed”.
For “MNVRKFPFAMRAGVAGMLALAALLAGCGSLSGSEMSRRTDADIEVARQRQADEKAELTSPGTYLSLIRRMQEQGMYYASLAHIDAYVQRFGRTPDVLLLRADALRETDQPAAAEADYRAVVEATSALGAGTQGALLNANAWRGLGITAGRQGRFAEAVRRLQLAARGNPTDASTESDLGYALMRAGEVEQARVPLMQAAQLDAANPKIAGNLAIWLDVNDRKEAAAALTAHARLSEAARKAIDEDAARVRSAWRDRRVARDTAPQPVQRAVVANPALMPAAAAPRSSAPLAFQRGRLLDNLEAAQ”, the protein production was “failed”.
For “MNVSNGDLIVEKIVANRKYHALKRQRNVLSWLLTLLMLVVYFGFIGLIAFNKAFLAVPLASGVTTRGIPIAIGVMLFAIIVTAVYVFFSNIVYDKLSRNILEDACK”, the protein production was “failed”.
In the case of “MNVVIVRYGEIGTKSRQTRSWFEKILMNNIREALVTEEVPYKEIFSRHGRIIVKTNSPKEAANVLVRVFGIVSISPAMEVEASLEKINRTALLMFRKKAKEVGKERPKFRVTARRITKEFPLDSLEIQAKVGEYILNNENCEVDLKNYDIEIGIEIMQGKAYIYTEKIKGWGGLPIGTEGRMIGILHDELSALAIFLMMKRGVEVIPVYIGKDDKNLEKVRSLWNLLKRYSYGSKGFLVVAESFDRVLKLIRDFGVKGVIKGLRPNDLNSEVSEITEDFKMFPVPVYYPLIALPEEYIKSVKERLGL”, the protein production is reported as “not failed”.
In the case of “MNVVRSSAYTGVATLAKLLAALVVVKLVAVYAGPQGVGRLGQFLNLMSVLAVLAGGGISAGIVKYVAQYRDDAPALARLLSAALWYAFCAACAMALLAMAFSGAIAERLLGDASYRPLMCVLAIAQLGIALLNYMLAVINGFMDVRRLAFVQVSGAVLSVALVAWLSGRAQLHGALLALVLSQVLWLLAAVPALRRSSYFQPAMWRMRFDAEMTRQLAAFSVMTLTSTLVPQLVAILVRDHLALQFGWEQVGYWQAVSRVSDAYLLFFTTAINVYYLPKLASLRGAVALGQELRGAYRYVMPAVIVMALGVYVCRDWVTLLLFDAQFAAAAPLYGPQLLGDVVKIAAFVLSYVMLAKAMTRLLVISECIFAASYLALVYLFTAQFGLIGAMYAFAANYVLYLLFNIVVVRRYLRRTA”, the protein production is reported as “failed”.
For “MNVVVTGGRGSSGRWIVDRLVGPHDVTVLDRRLPDDEGHPAVEYQALDLTDAGGVFDTLTAIDPDAVVHWAAIPVAGNHPGVDLFQNNTLAAHNVLSAAGRVGADVVQGSSDGAYGFFFAEETPVPDELPITEKHARRPEDDYGLSKVVTEEIGKTIARRDGISVASIRPSWIQIPGEYPCRSEDYVDDLAAGAGNYWSYVDVRDVADLVEAALTADVAGHETFNCVGPDNALGRPLVELMRDHYGRVPDDCTVEGDAAAYSTAKATERLGWEPTRSWREAADVDVDVPTV”, the protein production was “failed”.
